Patent US20240315219A1, “ANIMAL MODEL FOR DISEASES ASSOCIATED WITH ABSENCE OR REDUCTION OF SOCIAL DOMINANCE, AND PHARMACEUTICAL COMPOSITION FOR PREVENTING OR TREATING DISEASES” (ADEL, Inc., priority 2021, published 2024)

Key:
CRTC3 KO mice [1] = assay: Tube dominance test, CRTC3 KO mice housed with WT mice; type: in vivo, mouse
Experimental: (§1) The apparatus for the tube dominance test was made of a transparent plastic tube with a length of 30 cm and an inner diameter of 2.5 cm. To allow the mice to adapt to passing through the inside of the tube, the respective mice were trained to pass across the tube alternately on both sides for two or three consecutive days. During the training period, care was taken to ensure that the mice passed through the tube as naturally as possible without causing stress. This test was performed after identifying that all mice could freely pass through the tube without stress.
During the dominance test period, a total of 2 mice, one at each end of the tube, were placed to meet in the middle of the tube. In a case where one mouse pushed the other mouse out of the tube, one (1) winning point was earned. The test was repeated three times. […] For each test, win or loss was determined by winning points. […]
(§2) First, starting at 1 month of age, the CRTC3 KO mice and the WT mice were housed in one group and raised together for 2 months. […] To determine changes in ranking of the mice in the group, social dominance ranking was evaluated by a tube dominance test daily for 15 days starting at 3 months of age. The respective mice in the group were tested in turn, and dominance ranking of the mice in the group was determined based on their winning points. […]

C57BL/6 mice = assay: Tube dominance test, lowest-ranked mouse in C57BL/6 mouse group; type: in vivo; conditions: lowest-ranked C57BL/6 mouse, intracerebroventricular via osmotic pump
Experimental: as §1
During the dominance test period, a total of 2 mice, one at each end of the tube, were placed to meet in the middle of the tube. In a case where one mouse pushed the other mouse out of the tube, one (1) winning point was earned. The test was repeated three times. […] For each test, win or loss was determined by winning points.
as §2

CRTC3 KO mice [2] = assay: Warm spot test; type: in vivo, mouse; conditions: ICV osmotic pump, before vs after
Experimental: The warm spot test was performed using the following apparatus and method. The test apparatus was a box with dimensions of 30 cm by 30 cm, and the bottom was kept cold by ice. A fan-shaped heating mat of approximately 3 cm was laid one corner of the bottom to warm only that part of the bottom. In the first test, the mice were placed in a box with all bottom surfaces cold and kept thereon for 30 minutes to get used to the environment. After 30 minutes, the mice were moved to a box with a heating mat on one corner of the bottom, and the time each mouse occupied the bottom surface with the heating mat was measured for 20 minutes. Based on the measured time, each mouse's ranking in the group was determined.
First, starting at 1 month of age, the CRTC3 KO mice and the WT mice were housed in one group and raised together for 2 months. This allowed social ranking to be naturally formed among the mice in the same group. To determine changes in ranking of the mice in the group, social dominance ranking was evaluated by a tube dominance test daily for 15 days starting at 3 months of age. The respective mice in the group were tested in turn, and dominance ranking of the mice in the group was determined based on their winning points. […]

[3] = test system: CRTC3 KO primary astrocytes; assay: Cell shape index (CSI) of astrocytes, GFAP immunocytochemistry; type: cell-based, mouse; conditions: AREG 200 ng/ml, vs WT astrocytes
Experimental: Next, to identify localization of CRTC3 in the cellular changes induced in astrocytes, comparison of astrocyte shape was performed between the CRTC3 KO mice and the WT mice. The shape of the cells was observed using GFAP as an astrocyte marker through fluorescent staining according to the method described in Experimental Example 1.4.
To more accurately compare the astrocyte shapes, complexity of the astrocyte shape was determined using the cell shape index (CSI) defined as follows (in the formula, P is a cell's perimeter and A is a cell's area).
Immunocytochemistry was performed as follows. First, a 12 mm coverslip (Marienfeld, Germany) coated with PDL was placed in a 24-well plate, and cells were plated thereon. Then, the cells were fixed with 4% paraformaldehyde (Biosesang, Korea) for 10 minutes. The cells were washed three times with PBS, and then subjected to permeabilization with PBS containing 0.1% Triton X-100 for 5 minutes at room temperature. The cells were washed again three times and blocked with PBS containing 5% bovine serum albumin (BSA) at 37° C. for 30 minutes. The cells were washed three times and incubated with mouse anti-GFAP antibody (Chemicon-Millipore, USA) overnight at 4° C. […] Then, each sample was mounted using a fluorescence mounting solution (DAKO, USA) for imaging.

B1: AREG: Recombinant mouse amphiregulin from R&D Systems, SEQ ID NO: 11; EGF receptor ligand (protein, listed as Mus musculus)
chain: SVRVEQVIKPKKNKTEGEKSTEKPKRKKKGGKNGKGRRNKKKKNPCTAKFQNFCIHGECRYIENLEVVTCNCHQDYFGERCGEKSMKTHSEDDKDLSK
modifications: Mouse AREG Protein
notes: EGF receptor ligand
cages in which changes (increase) in social dominance ranking were observed after administration (CRTC3 KO mice [1]; CRTC3 KO mice with low ranking, housed with WT mice, intracerebroventricular via osmotic pump): 81% | winning points after vs before administration (CRTC3 KO mice [1]; CRTC3 KO mice, ICV osmotic pump): increase in winning points | cages in which ranking of the lowest-ranked mouse increased after administration (C57BL/6 mice): 71% | social dominance ranking in warm spot test after administration (CRTC3 KO mice [2]): increased social dominance ranking | time occupying the warm spot after administration (CRTC3 KO mice [2]): increase in the time they occupied the warm spot | cell shape index (CSI) [3]: increased a CSI level of the primary astrocytes in the CRTC3 KO mice to that of the WT astrocytes
